Reference: article PMC2733745 (The Journal of Cell Biology, 2009)

Experiments:
[1] = biological target: FN7–10 (fibronectin type III domains 7–10) (human, UniProt P02751-1 1173-1540); experiment: SEC
1TM-αVβ3 = 1TM-αVβ3 (human, UniProt P06756;P05106); experiment: SEC
[2] = biological target: full-length WT αVβ3 stably expressed on K562 cells (human, UniProt P06756;P05106); experiment: flow cytometry on cells

stoichiometry N [1] [integrin/FN molar ratio]	binding result (1TM-αVβ3)	binding result [2]	Binder
~1	–	–	1TM-αVβ3 (complex) chain 1: FNLDVDSPAEYSGPEGSYFGFAVDFFVPSASSRMFLLVGAPKANTTQPGIVEGGQVLKCDWSSTRRCQPIEFDATGNRDYAKDDPLEFKSHQWFGASVRSKQDKILACAPLYHWRTEMKQEREPVGTCFLQDGTKTVEYAPCRSQDIDADGQGFCQGGFSIDFTKADRVLLGGPGSFYWQGQLISDQVAEIVSKYDPNVYSIKYNNQLATRTAQAIFDDSYLGYSVAVGDFNGDGIDDFVSGVPRAARTLGMVYIYDGKNMSSLYNFTGEQMAAYFGFSVAATDINGDDYADVFIGAPLFMDRGSDGKLQEVGQVSVSLQRASGDFQTTKLNGFEVFARFGSAIAPLGDLDQDGFNDIAIAAPYGGEDKKGIVYIFNGRSTGLNAVPSQILEGQWAARSMPPSFGYSMKGATDIDKNGYPDLIVGAFGVDRAILYRARPVITVNAGLEVYPSILNQDNKTCSLPGTALKVSCFNVRFCLKADGKGVLPRKLNFQVELLLDKLKQKGAIRRALFLYSRSPSHSKNMTISRGGLMQCEELIAYLRDESEFRDKLTPITIFMEYRLDYRTAADTTGLQPILNQFTPANISRQAHILLDCGEDNVCKPKLEVSVDSDQKKIYIGDDNPLTLIVKAQNQGEGAYEAELIVSIPLQADFIGVVRNNEALARLSCAFKTENQTRQVVCDLGNPMKAGTQLLAGLRFSVHQQSEMDTSVKFDLQIQSSNLFDKVSPVVSHKVDLAVLAAVEIRGVSSPDHVFLPIPNWEHKENPETEEDVGPVVQHIYELRNNGPSSFSKAMLHLQWPYKYNNNTLLYILHYDIDGPMNCTSDMEINPLRIKISSLQTTEKNDTVAGQGERDHLITKRDLALSEGDIHTLGCGVAQCLKIVCQVGRLDRGKSAILYVKSLLWTETFMNKENQNHSYSLKSSASFNVIEFPYKNLPIEDITNSTLVTTNVTWGIQPAPMPVPVWVI chain 2: GPNICTTRGVSSCQQCLAVSPMCAWCSDEALPLGSPRCDLKENLLKDNCAPESIEFPVSEARVLEDRPLSDKGSGDSSQVTQVSPQRIALRLRPDDSKNFSIQVRQVEDYPVDIYYLMDLSYSMKDDLWSIQNLGTKLATQMRKLTSNLRIGFGAFVDKPVSPYMYISPPEALENPCYDMKTTCLPMFGYKHVLTLTDQVTRFNEEVKKQSVSRNRDAPEGGFDAIMQATVCDEKIGWRNDASHLLVFTTDAKTHIALDGRLAGIVQPNDGQCHVGSDNHYSASTTMDYPSLGLMTEKLSQKNINLIFAVTENVVNLYQNYSELIPGTTVGVLSMDSSNVLQLIVDAYGKIRSKVELEVRDLPEELSLSFNATCLNNEVIPGLKSCMGLKIGDTVSFSIEAKVRGCPQEKEKSFTIKPVGFKDSLIVQVTFDCDCACQAQAEPNSHRCNNGNGTFECGVCRCGPGWLGSQCECSEEDYRPSQQDECSPREGQPVCSQRGECLCGQCVCHSSDFGKITGKYCECDDFSCVRYKGEMCSGHGQCSCGDCLCDSDWTGYYCNCTTRTDTCMSSNGLLCSGRGKCECGSCVCIQPGSYGDTCEKCPTCPDACTFKKECVECKKFDRGALHDENTCNRYCRDEIESVKELKDTGKDAVNCTYKNEDDCVVRFQYYEDSSGKSILYVVEEPECPKGPDILVV
–	binds	binds	Fab fragment of the anti–αV propeller mAb 17E6 (Fab, V domains shown) VH: QVQLQQSGAELAEPGASVKMSCKASGYTFSSFWMHWVKQRPGQGLEWIGYINPRSGYTECNEIFRDKATMTADTSSSTAYMQLSGLTSEDSAVYYCASFLGRGAMDYWGQGTSVTVSS VL: DIQMTQTTSSLSASLGDRVIISCRASQDISNYLSWYQQKPDGTVKLLIFYTSKLHSGVPSRFSGSGSGTDYSLTISNLDQEDIATYFCQQGNTFPYTFGGGTKVEMR
